# According to the supplement of paper PMC11246515:
# ± gives the standard deviation of the averaged measurements.
# Assay: total protein half-life in vivo (active degradation + dilution); higher = more stable protein
# [1] = E. coli NCM3722 delta-clpP delta-lon delta-hslV, growth: N-lim chemostat, doubling time 6 h
# [2] = E. coli NCM3722 delta-clpP, growth: N-lim chemostat, doubling time 6 h
# [3] = E. coli NCM3722 delta-hslV, growth: N-lim chemostat, doubling time 6 h
# [4] = E. coli NCM3722 delta-lon, growth: N-lim chemostat, doubling time 6 h
# [5] = E. coli NCM3722 delta-smpB, growth: N-lim chemostat, doubling time 6 h
# [6] = wild type E. coli NCM3722, growth: C-lim chemostat, doubling time 3 h
# [7] = wild type E. coli NCM3722, growth: C-lim chemostat, doubling time 6 h
# [8] = wild type E. coli NCM3722, growth: C-lim chemostat, doubling time 12 h
# [9] = wild type E. coli NCM3722, growth: N-lim chemostat, doubling time 6 h
# [10] = wild type E. coli NCM3722, growth: N-lim chemostat, doubling time 12 h
# [11] = wild type E. coli NCM3722, growth: P-lim chemostat, doubling time 6 h
# [12] = wild type E. coli NCM3722, growth: P-lim chemostat, doubling time 12 h
Sequence,total protein half-life in vivo [1],total protein half-life in vivo [2],total protein half-life in vivo [3],total protein half-life in vivo [4],total protein half-life in vivo [5],total protein half-life in vivo [6],total protein half-life in vivo [7],total protein half-life in vivo [8],total protein half-life in vivo [9],total protein half-life in vivo [10],total protein half-life in vivo [11],total protein half-life in vivo [12]
MKKPNHSGSGQIRIIGGQWRGRKLPVPDSPGLRPTTDRVRETLFNWLAPVIVDAQCLDCFAGSGALGLEALSRYAAGATLIEMDRAVSQQLIKNLATLKAGNARVVNSNAMSFLAQKGTPHNIVFVDPPFRRGLLEETINLLEDNGWLADEALIYVESEVENGLPTVPANWSLHREKVAGQVAYRLYQREAQGESDAD [P0ADX9],5.34 ± 0.45 h,4.8 ± 0.15 h,4.49 ± 0.13 h,5.32 ± 0.09 h,5.18 ± 0.6 h,3.08 ± 0.15 h,5.57 ± 0.19 h,10.1 ± 1.5 h,4.49 ± 0.68 h,12.5 h,5.1 ± 0.26 h,11.1 ± 0.63 h
MKKRHLLSLLALGISTACYGETYPAPIGPSQSDFGGVGLLQTPTARMAREGELSLNYRDNDQYRYYSASVQLFPWLETTLRYTDVRTRQYSSVEAFSGDQTYKDKAFDLKLRLWEESYWLPQVAVGARDIGGTGLFDAEYLVASKAWGPFDFTLGLGWGYLGTSGNVKNPLCSASDKYCYRDNSYKQAGSIDGSQMFHGPASLFGGVEYQTPWQPLRLKLEYEGNNYQQDFAGKLEQKSKFNVGAIYRVTDWADVNLSYERGNTFMFGVTLRTNFNDLRPSYNDNARPQYQPQPQDAILQHSVVANQLTLLKYNAGLADPQIQAKGDTLYVTGEQVKYRDSREGIIRANRIVMNDLPDGIKTIRITENRLNMPQVTTETDVASLKNHLAGEPLGHETTLAQKRVEPVVPQSTEQGWYIDKSRFDFHIDPVLNQSVGGPENFYMYQLGVMGTADLWLTDHLLTTGSLFANLANNYDKFNYTNPPQDSHLPRVRTHVREYVQNDVYVNNLQANYFQHLGNGFYGQVYGGYLETMFGGAGAEVLYRPLDSNWAFGLDANYVKQRDWRSAKDMMKFTDYSVKTGHLTAYWTPSFAQDVLVKASVGQYLAGDKGGTLEIAKRFDSGVVVGGYATITNVSKEEYGEGDFTKGVYVSVPLDLFSSGPTRSRAAIGWTPLTRDGGQQLGRKFQLYDMTSDRSVNFR,5.44 h,,,6.75 ± 0.42 h,5.88 ± 0.37 h,,,12.6 h,,11.6 h,,
MKKSILALSLLVGLSTAASSYAALPETVRIGTDTTYAPFSSKDAKGDFVGFDIDLGNEMCKRMQVKCTWVASDFDALIPSLKAKKIDAIISSLSITDKRQQEIAFSDKLYAADSRLIAAKGSPIQPTLDSLKGKHVGVLQGSTQEAYANETWRSKGVDVVAYANQDLVYSDLAAGRLDAALQDEVAASEGFLKQPAGKDFAFAGSSVKDKKYFGDGTGVGLRKDDAELTAAFNKALGELRQDGTYDKMAKKYFDFNVYGD,6.69 ± 0.15 h,,6.37 ± 0.68 h,6.79 ± 0.077 h,5.31 ± 0.11 h,3.22 ± 0.3 h,6.33 ± 0.92 h,11.58 ± 0.11 h,5.27 ± 0.47 h,8.71 ± 0.59 h,5.98 ± 0.25 h,11.4 ± 1.6 h
MKKSITTLDLNLLLCLQLLMQERSVTKAAKRINVTPSAVSKSLAKLRAWFDDPLFVNSPLGLSPTPLMVSMEQNLAEWMQMSNLLLDKPHHQTPRGLKFELAAESPLMMIMLNALSKQIYQRYPQATIKLRNWDYDSLDAITRGEVDIGFSGRESHPRSRELLSSLPLAIDYEVLFSDVPCVWLRKDHPALHQTWNLDTFLRYPHISICWEQSDTWALDNVLQELGRERTIAMSLPEFEQSLFMAAQPDNLLLATAPRYCQYYNQLHQLPLVALPLPFDESQQKKLEVPFTLLWHKRNSHNPKIVWLRETIKNLYASMA,5.87 ± 0.7 h,5.16 ± 1 h,5.91 ± 0.94 h,6.37 ± 0.5 h,4.519 ± 0.029 h,,,,4.74 h,12.2 h,,11.2 ± 0.6 h
MKKSLLGLTFASLMFSAGSAVAADYKIDKEGQHAFVNFRIQHLGYSWLYGTFKDFDGTFTFDEKNPAADKVNVTINTTSVDTNHAERDKHLRSADFLNTAKYPQATFTSTSVKKDGDELDITGDLTLNGVTKPVTLEAKLIGQGDDPWGGKRAGFEAEGKIKLKDFNIKTDLGPASQEVDLIISVEGVQQK [P0A8X2],5.61 ± 0.24 h,6.32 ± 0.21 h,6.38 ± 0.11 h,6.59 ± 0.48 h,6.61 ± 1.1 h,3.22 ± 0.24 h,,10.6 ± 4 h,6.19 ± 0.62 h,10.9 ± 2.2 h,6.05 ± 0.28 h,14 ± 1.4 h
MKKTQRKEIENVTNITGVRQIELWRRDDLQHPRLDEVAEEVPVALVYNGISHVVMMASPKDLEYFALGFSLSEGIIESPRDIFGMDVVPSCNGLEVQIELSSRRFMGLKERRRALAGRTGCGVCGVEQLNDIGKPVQPLPFTQTFDLNKLDDALRHLNDFQPVGQLTGCTHAAAWMLPSGELVGGHEDVGRHVALDKLLGRRSQEGESWQQGAVLVSSRASYEMVQKSAMCGVEILFAVSAATTLAVEVAERCNLTLVGFCKPGRATVYTHPQRLSN,5.53 ± 0.71 h,> 8 h,3.83 ± 0.57 h,4.1 ± 0.3 h,3.793 ± 0.019 h,2.89 ± 0.25 h,4.79 ± 0.16 h,9.01 ± 0.31 h,3.88 ± 0.38 h,6.61 ± 0.14 h,4.99 ± 0.11 h,10.5 ± 0.64 h
MKKTRTANLHHLYHEPLPENLKLTPKVEVDNVHQRQTTDVYEHALTITAWQQIYDQLHPGKFHGEFTEILLDDIQVFREYTGLALRQSCLVWPNSFWFGIPATRGEQGFIGSQCLGSAEIATRPGGTEFELSTPDDYTILGVVLSEDVITRQANFLHNPDRVLHMLRNQSALEVKEQHKAALWGFVQQALATFCENPENLHQPAVRKVLGDNLLMAMGAMLEEAQPMVTAESISHQSYRRLLSRAREYVLENMSEPVTVLDLCNQLHVSRRTLQNAFHAILGIGPNAWLKRIRLNAVRRELISPWSQSMTVKDAAMQWGFWHLGQFATDYQQLFSEKPSLTLHQRMREWG,5.53 ± 0.77 h,,,,,,1.42 h,,,2.75 h,1.29 h,
MKKVAAFVALSLLMAGCVSNDKIAVTPEQLQHHRFVLESVNGKPVTSDKNPPEISFGEKMMISGSMCNRFSGEGKLSNGELTAKGLAMTRMMCANPQLNELDNTISEMLKEGAQVDLTANQLTLATAKQTLTYKLADLMN,6.45 ± 1.1 h,6.13 ± 0.01 h,6.52 ± 1.3 h,,6.01 ± 0.55 h,2.95 ± 0.68 h,5.47 ± 1.1 h,11 ± 0.29 h,6.111 ± 0.014 h,11.5 ± 1.1 h,6 ± 0.54 h,12.9 ± 0.28 h
MKKVWLNRYPADVPTEINPDRYQSLVDMFEQSVARYADQPAFVNMGEVMTFRKLEERSRAFAAYLQQGLGLKKGDRVALMMPNLLQYPVALFGILRAGMIVVNVNPLYTPRELEHQLNDSGASAIVIVSNFAHTLEKVVDKTAVQHVILTRMGDQLSTAKGTVVNFVVKYIKRLVPKYHLPDAISFRSALHNGYRMQYVKPELVPEDLAFLQYTGGTTGVAKGAMLTHRNMLANLEQVNATYGPLLHPGKELVVTALPLYHIFALTINCLLFIELGGQNLLITNPRDIPGLVKELAKYPFTAITGVNTLFNALLNNKEFQQLDFSSLHLSAGGGMPVQQVVAERWVKLTGQYLLEGYGLTECAPLVSVNPYDIDYHSGSIGLPVPSTEAKLVDDDDNEVPPGQPGELCVKGPQVMLGYWQRPDATDEIIKNGWLHTGDIAVMDEEGFLRIVDRKKDMILVSGFNVYPNEIEDVVMQHPGVQEVAAVGVPSGSSGEAVKIFVVKKDPSLTEESLVTFCRRQLTGYKVPKLVEFRDELPKSNVGKILRRELRDEARGKVDNKA,,5.82 ± 0.16 h,5.05 ± 0.23 h,5.34 ± 0.82 h,4.279 ± 0.022 h,1.68 ± 0.16 h,3.98 ± 0.57 h,6.59 ± 0.46 h,4.879 ± 0.022 h,10.9 ± 1.6 h,4.93 ± 0.11 h,10.8 ± 1.1 h
MKKWLLAAGLGLALATSAQAADKIAIVNMGSLFQQVAQKTGVSNTLENEFKGRASELQRMETDLQAKMKKLQSMKAGSDRTKLEKDVMAQRQTFAQKAQAFEQDRARRSNEERGKLVTRIQTAVKSVANSQDIDLVVDANAVAYNSSDVKDITADVLKQVK [P0AEU7],7.77 ± 0.22 h,,6.97 ± 1 h,6.66 ± 0.53 h,6.63 ± 0.26 h,3.15 ± 0.35 h,6 ± 0.15 h,10.3 ± 0.22 h,5.62 ± 0.57 h,13.4 ± 1.8 h,6.79 ± 1 h,13.7 ± 0.66 h
MKLAHLGRQALMGVMAVALVAGMSVKSFADEGLLNKVKERGTLLVGLEGTYPPFSFQGDDGKLTGFEVEFAQQLAKHLGVEASLKPTKWDGMLASLDSKRIDVVINQVTISDERKKKYDFSTPYTISGIQALVKKGNEGTIKTADDLKGKKVGVGLGTNYEEWLRQNVQGVDVRTYDDDPTKYQDLRVGRIDAILVDRLAALDLVKKTNDTLAVTGEAFSRQESGVALRKGNEDLLKAVNDAIAEMQKDGTLQALSEKWFGADVTK [P0AEM9],6.22 ± 0.52 h,5.74 ± 0.64 h,6.87 ± 0.34 h,7.33 ± 0.21 h,6.54 ± 0.16 h,3.47 ± 0.28 h,6.27 ± 0.63 h,12.5 ± 2.1 h,5.71 ± 0.61 h,14.1 ± 1.8 h,5.95 ± 0.58 h,14.49 ± 0.065 h
MKLIITEDYQEMSRVAAHHLLGYMSKTRRVNLAITAGSTPKGMYEYLTTLVKGKPWYDNCYFYNFDEIPFRGKEGEGVTITNLRNLFFTPAGIKEENIQKLTIDNYREHDQKLAREGGLDLVVLGLGADGHFCGNLPNTTHFHEQTVEFPIQGEMVDIVAHGELGGDFSLVPDSYVTMGPKSIMAAKNLLIIVSGAGKAQALKNVLQGPVTEDVPASVLQLHPSLMVIADKAAAAELALG,5.36 ± 0.6 h,,,,,2.47 h,3.24 h,,2.68 h,,,
